This assay addresses EBV DNA polymerase BALF5 catalytic subunit, full-length (Epstein-Barr Virus) (UniProt P03198). Nature of the assay: cell-based or functional assay.

Chain of EBV DNA polymerase BALF5 catalytic subunit, full-length (Epstein-Barr Virus) (P03198 1-1015, tags or fused parts left off): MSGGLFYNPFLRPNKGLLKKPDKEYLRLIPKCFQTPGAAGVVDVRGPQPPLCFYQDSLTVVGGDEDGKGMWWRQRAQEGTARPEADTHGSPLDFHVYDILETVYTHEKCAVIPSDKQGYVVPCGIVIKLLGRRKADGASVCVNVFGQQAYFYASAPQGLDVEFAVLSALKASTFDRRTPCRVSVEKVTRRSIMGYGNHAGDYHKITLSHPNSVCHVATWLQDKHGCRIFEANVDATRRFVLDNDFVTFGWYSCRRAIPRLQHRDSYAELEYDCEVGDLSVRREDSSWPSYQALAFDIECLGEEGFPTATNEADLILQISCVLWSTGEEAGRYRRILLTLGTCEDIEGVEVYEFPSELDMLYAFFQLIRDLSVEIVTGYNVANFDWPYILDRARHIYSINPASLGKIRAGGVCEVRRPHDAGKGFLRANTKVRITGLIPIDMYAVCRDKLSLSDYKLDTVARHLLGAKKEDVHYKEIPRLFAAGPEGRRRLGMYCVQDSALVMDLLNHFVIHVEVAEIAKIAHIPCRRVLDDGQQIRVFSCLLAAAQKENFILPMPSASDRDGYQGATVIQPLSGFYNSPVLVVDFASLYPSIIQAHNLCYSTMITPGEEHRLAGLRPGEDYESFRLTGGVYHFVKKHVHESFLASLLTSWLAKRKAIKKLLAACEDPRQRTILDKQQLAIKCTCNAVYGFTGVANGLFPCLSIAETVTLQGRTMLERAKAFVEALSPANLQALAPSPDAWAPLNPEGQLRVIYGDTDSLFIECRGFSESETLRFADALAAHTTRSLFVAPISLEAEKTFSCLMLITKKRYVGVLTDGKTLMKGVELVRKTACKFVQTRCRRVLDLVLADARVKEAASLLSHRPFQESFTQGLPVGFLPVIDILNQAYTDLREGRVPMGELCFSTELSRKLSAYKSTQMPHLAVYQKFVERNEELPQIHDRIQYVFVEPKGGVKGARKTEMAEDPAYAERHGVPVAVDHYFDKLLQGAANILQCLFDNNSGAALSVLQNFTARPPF

The substance “EBV BMRF1 processivity factor, full-length (from UniProt P03191 1-404)” registered a DNA polymerase elongation activity on activated calf thymus DNA at 100 mM ammonium sulfate of more than 100 fold.

The record behind these values is patent publication US20150064747A1.
